US20200369769A1 (Bayer, published 2020)

T1: human ILDR2 (Immunoglobulin Like Domain Containing Receptor 2) (human, UniProt Q71H61 21-639)
T1 sequence (looked up): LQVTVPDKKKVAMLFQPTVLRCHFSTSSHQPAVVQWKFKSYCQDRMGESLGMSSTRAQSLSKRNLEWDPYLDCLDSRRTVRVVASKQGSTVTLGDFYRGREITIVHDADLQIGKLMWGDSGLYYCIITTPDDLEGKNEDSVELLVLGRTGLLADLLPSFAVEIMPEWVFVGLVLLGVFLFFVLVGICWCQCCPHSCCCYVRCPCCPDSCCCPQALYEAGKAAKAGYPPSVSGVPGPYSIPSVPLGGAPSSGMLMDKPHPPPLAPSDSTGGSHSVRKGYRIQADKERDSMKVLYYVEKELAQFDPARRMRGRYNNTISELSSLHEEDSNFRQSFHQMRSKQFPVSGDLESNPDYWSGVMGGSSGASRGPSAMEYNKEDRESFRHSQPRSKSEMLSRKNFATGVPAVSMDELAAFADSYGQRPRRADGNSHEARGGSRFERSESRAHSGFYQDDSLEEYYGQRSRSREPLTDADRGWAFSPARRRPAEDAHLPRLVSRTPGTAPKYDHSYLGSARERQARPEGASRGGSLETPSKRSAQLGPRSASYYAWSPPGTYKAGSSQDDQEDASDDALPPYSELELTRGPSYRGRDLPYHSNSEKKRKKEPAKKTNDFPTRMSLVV

B1: 56.02.E10 (antibody, V domains shown)
VH: QVQLVESGGGLVKPGGSLRLSCAASGFTFSNYGMHWVRQAPGKGPEWLAFIRYDGSKKYYADSVRGRFTISRDNSKNMLYLQMNSLRTEDTAVYYCAKEGIAAPGSGYYYGMDVWGQGTTVTVSS
VL: QSALTQPASVSGSPGQSITISCSGTTTDVGRYTLVSWYQHHPGKAPKLIIFEVNKRPSGVSSRFSGSKSGNTASLTISGLQTEDEADYFCCSYTGTTVIFGGGTQLTVL
B2: 61-02.C05 (antibody, V domains shown)
VH: EVQLVESGGGVVQPGGSLRLSCAASGFTFSSYAMSWVRQAPGKGLEWVSGISSSGGSTQYADSVKGRFTVSRDNSKNTLYLQMKSLRAEDTALYYCAKDFVGVLPDAFDIWGQGTMVTVSS
VL: DIQLTQSPSSLSASVGDRVTITCQASQDTNKYLNWYQQKPGKAPELLIYGASTLESGVPPRFSASGSGTDFTLTINSLQPEDIGRYYCQQYHIPPPSFGGGTKLEIK
notes: Full length IgG; The KD assay says 'hIgG1s'; also called 61-02.005
B3: 59-08.B02 (antibody, V domains shown)
VH: QVQLVQSGAEVKKPGSSVKVSCKASGGTFSSYAISWVRQAPGQGLEWMGGIIPILGIANYAQKFQGRVTITADKSTSTAYMELSSLRSEDTAVYYCARGRLPYGDFWDSWGQGTLVTVSS
VL: not shown
notes: also called BAY1905254; aILDR2
B4: 56-02.E08 (antibody, V domains shown)
VH: EVQLVQSGAEVKKPGESLKISCKASGYSFTTYWIGWVRQVPGKGLEWMGIIYPGDYDTRYSPSFQGQVTISADKSINTAYLQWSSLEASDSAMYYCAIGEPFDYWGQGTLVTVSS
VL: not shown
notes: Full length IgG; The KD assay says 'hIgG1s'
B5: 74.15.G09 (antibody, V domains shown)
VH: EVQLVESGGGVVQPGRSLRLSCAASGFTFSSYGMHWVRQAPGKGLEWVAVISYDGSNKYYADSVKGRFTISRDNSKNTLYLQMNSLRAEDTAVYYCAKESPSVGLGSYYDFWSGLYGMDVWGQGTTVTVSS
VL: EIVLTQSPGTLSLSPGERVTLSCRTGQRVENLFIAWYQQKPGQAPRLLLYGASNRATGIPDRFSGSGSGTDFTLTISRLEPEDSAVYYCQQYDDSGITFGQGTRLEIK
notes: as for B4

target: T1, human ILDR2 (Immunoglobulin Like Domain …); assay: cell-based or functional assay

IL2 concentration (% over isotype control), mixed lymphocyte reaction [% over isotype control] | Binder
223 | B1
82 | B2
91 | B3
74 | B4
86 | B5

target: T1, human ILDR2 (Immunoglobulin Like Domain …); assay: flow cytometry titration of hIgG1 on HEK cells stably transfected with human ILDR2; 1:1 equilibrium fit of MFI
Method: KD values were determined by flowcytometric quantitation of binding to HEK cells stably transfected with human ILDR2 and use of an algorithm designed to extrapolate affinities based on the binding curve. Briefly, hIgG1 s were added at a binding site concentration range of 3 pM-209 nM to a constant number of cells (100,000 cells/well) over 16 wells in a 96-well plate. One well contained cells without any added IgG to serve as a blank well. The cells were equilibrated for 4 hours at 4° C. An excess of Cy5-labeled goat anti-human polyclonal antibody (Jackson ImmunoResearch 109-606-097) at 90nM was added to each well after one FACS buffer wash of the cells. Cells were washed twice after a 30 minute incubation (at 4° C.) with the labeling pAb and then the Mean Fluorescence Intensity (MFI) was recorded over approximately 10,000 “events” using an Intellicyte flow cytometer. The […] of the IgGs binding to HEK 293 cells expressing ILDR2 were estimated by fitting the MFI vs. the IgG binding site concentration curve using a 1:1 equilibrium model as detailed in Drake and Klakamp (2007).

Kd [nM] | Binder
10.7 | B2
2 | B3
2.7 | B4
12.4 | B5
